For one substance, Kd results are on record in article PMC8786865.

This assay has as its target SARS-CoV-2 spike protein receptor-binding domain (RBD) (SARS-CoV-2) (UniProt P0DTC2). The assay is described as follows: SPR. Background: Surface plasmon resonance follows binding to a sensor surface in real time, without labels.

For CR3022, the Kd was 0.011 µM.

In general, Kd refers to the free concentration of one partner at which half of the binding sites on the other are occupied at equilibrium, for simple one-to-one binding. Lower therefore signals tighter binding.
